Columns and labels:
[1] = target: recombinant RBD of the spike protein of SARS-CoV (SARS-CoV, UniProt P59594 306-527); assay: SPR, RBD on CM5 chip
[2] = target: T1, full length spike of MERS-CoV (MERS-CoV, UniProt K9N5Q8 18-1353); assay: FACS, HEK 293T cells expressing the full length spike, anti-human IgG Fc PE
T1 construct: whole, on cells

[3] = target: T2, full length spike of SARS-CoV (SARS-CoV, UniProt P59594 14-1255); assay: as above
T2 construct: whole, on cells

T1 sequence (K9N5Q8 18-751, chain 1 of 2): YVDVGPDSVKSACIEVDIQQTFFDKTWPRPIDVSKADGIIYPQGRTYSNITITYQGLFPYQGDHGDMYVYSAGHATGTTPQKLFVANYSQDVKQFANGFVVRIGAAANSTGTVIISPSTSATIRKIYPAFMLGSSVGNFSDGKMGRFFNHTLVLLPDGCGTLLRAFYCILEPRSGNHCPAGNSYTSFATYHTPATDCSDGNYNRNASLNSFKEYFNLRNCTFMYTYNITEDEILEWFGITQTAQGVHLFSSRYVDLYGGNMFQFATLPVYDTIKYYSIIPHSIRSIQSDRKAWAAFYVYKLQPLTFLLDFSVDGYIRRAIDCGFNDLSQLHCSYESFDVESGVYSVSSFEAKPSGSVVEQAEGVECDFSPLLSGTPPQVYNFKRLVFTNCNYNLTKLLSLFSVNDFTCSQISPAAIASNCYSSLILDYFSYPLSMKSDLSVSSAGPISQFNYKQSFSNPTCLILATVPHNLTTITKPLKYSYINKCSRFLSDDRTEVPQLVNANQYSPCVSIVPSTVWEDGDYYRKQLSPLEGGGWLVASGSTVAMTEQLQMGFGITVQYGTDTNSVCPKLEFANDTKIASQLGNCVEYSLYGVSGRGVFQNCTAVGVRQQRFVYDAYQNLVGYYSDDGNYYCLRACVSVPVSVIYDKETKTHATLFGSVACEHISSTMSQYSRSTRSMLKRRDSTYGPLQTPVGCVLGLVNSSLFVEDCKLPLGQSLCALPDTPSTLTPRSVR
T1 sequence (K9N5Q8 752-1353, chain 2 of 2): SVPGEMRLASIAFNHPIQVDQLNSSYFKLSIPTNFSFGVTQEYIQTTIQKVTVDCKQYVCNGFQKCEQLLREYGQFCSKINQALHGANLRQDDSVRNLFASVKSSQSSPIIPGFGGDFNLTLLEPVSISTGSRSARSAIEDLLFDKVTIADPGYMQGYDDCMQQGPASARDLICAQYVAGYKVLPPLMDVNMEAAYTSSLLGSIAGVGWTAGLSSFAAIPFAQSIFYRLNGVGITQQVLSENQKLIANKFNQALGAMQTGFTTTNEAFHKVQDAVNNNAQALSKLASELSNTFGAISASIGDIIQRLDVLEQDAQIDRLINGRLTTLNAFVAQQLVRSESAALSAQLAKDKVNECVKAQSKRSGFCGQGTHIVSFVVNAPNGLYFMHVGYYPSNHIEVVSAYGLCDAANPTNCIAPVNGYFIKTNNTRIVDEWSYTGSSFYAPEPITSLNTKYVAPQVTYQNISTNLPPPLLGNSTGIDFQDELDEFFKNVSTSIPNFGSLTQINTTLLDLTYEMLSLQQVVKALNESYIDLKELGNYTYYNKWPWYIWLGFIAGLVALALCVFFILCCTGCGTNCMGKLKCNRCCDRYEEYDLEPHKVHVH

B1: P1A-1C10 (antibody, V domains shown)
VH: QVQLVQSGAEVKNPGSSVKVSCKAGGGTSSFYDINWVRQAPGQGLEWIGKIIPRLDIADYAQKSQGRVTITADKSTSTVYLELSSLKSDDTAVYFCARGRPGSEWAYGPFDLWGQGTLVTVSS
VL: DIQMTQSPSTLSASVGDRVTITCRASQSSRAWLAWYQQKPGKAPKLLISKASSLESGVPSRFSGSGYGTEFTLTISSLQPDDSATYYCHQYNSSPFTFGPGTKVQIKR
notes: human IgG1, kappa
binding result [1]: no binding (tested: not printed)
binding result [2]: no binding (tested: 20 µg/ml)
binding result [3]: no binding (tested: 20 µg/ml)
